Where a chain is given by its changes, count along the chain named. Where two headings read alike, the source gives them in different places.
What was measured:
human IL-4 [1] = target: T1, human IL-4 (human, UniProt P05112 25-153); test: cell-based or functional assay
T1 sequence (looked up): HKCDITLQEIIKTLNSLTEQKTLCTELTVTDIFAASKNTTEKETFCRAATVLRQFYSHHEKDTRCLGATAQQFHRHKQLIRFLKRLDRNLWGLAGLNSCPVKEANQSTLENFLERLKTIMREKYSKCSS

human IL-4 [2] = target: T1, human IL-4; test: cell-based or functional assay; remark: listed apart in the source
[3] = target: T2, recombinant cynomolgus monkey IL-4 (cynomolgus monkey, UniProt P79339 25-153); test: KinExA, fixed antigen format
T2 construct: also called Cyno IL-4
T2 sequence (looked up): T1 sequence (looked up) with E26K, V29I, F33L
Experimental: (§1) Samples were prepared in PBS containing 0.1% sodium azide and 1.0 mg/ml BSA. The fixed antigen assay method was used to determine binding affinity. […] Each trispecific and IL-4 cytokine were equilibrated for at least 72 hours at room temperature, then passed through a flow cell containing Polymethylmethacrylate (PMMA) beads coated with anti-hIL-4 Ab-0002 (Pfizer) that contains the same IL-4 binding domain as the trispecifics. […] Data analysis was performed with KinExA Pro software version 4.3.11 (Sapidyne). […] The ‘drift correction’ fitting option was used when responses varied between replicate injections. Two curves were obtained in independent experiments and analyzed using the ‘n-curve analysis’ tool to obtain global best fit values for the KD and active concentration of IL-4 cytokine. The software reports each best fit value along with a 95% confidence interval.

recombinant human IL-4 [4] = target: T3, recombinant human IL-4 (human, UniProt P05112 25-153); test: KinExA, fixed antigen format
T3 construct: Recombinant cytokine from several sources (R&D Systems, Syngene); treated as one molecule; also called rHu IL-4
T3 sequence (looked up): T1 sequence (looked up)
Experimental: as §1

[5] = target: T4, recombinant cynomolgus monkey IL-13 (cynomolgus monkey, UniProt Q0PW92 19-132); test: cell-based or functional assay
T4 sequence (Q0PW92 entry or part of it limits assumed): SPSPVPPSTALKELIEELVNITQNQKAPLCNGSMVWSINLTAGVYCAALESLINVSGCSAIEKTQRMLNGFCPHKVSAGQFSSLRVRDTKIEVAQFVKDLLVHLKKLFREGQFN

recombinant human IL-13 [6] = target: T5, recombinant human IL-13 (human, UniProt P35225 35-146); test: cell-based or functional assay
T5 sequence (P35225 35-146 limits assumed): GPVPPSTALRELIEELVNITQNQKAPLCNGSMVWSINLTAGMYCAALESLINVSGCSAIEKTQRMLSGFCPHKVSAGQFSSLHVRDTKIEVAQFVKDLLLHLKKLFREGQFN

recombinant human IL-4 [7] = target: T3, recombinant human IL-4; test: cell-based or functional assay
[8] = target: T4, recombinant cynomolgus monkey IL-13; test: KinExA, fixed antigen format
Experimental: (§2) Samples were prepared in PBS containing 0.1% sodium azide and 1.0 mg/ml BSA. The fixed antigen assay method was used to determine binding affinity. […] Data analysis was performed with KinExA Pro software version 4.3.11 (Sapidyne). […] The ‘drift correction’ fitting option was used when responses varied between replicate injections. Two curves were obtained in independent experiments and analyzed using the ‘n-curve analysis’ tool to obtain global best fit values for the KD and active concentration of IL-13 cytokine. The software reports each best fit value along with a 95% confidence interval.

recombinant human IL-13 [9] = target: T5, recombinant human IL-13; test: KinExA, fixed antigen format
Experimental: as §2

recombinant human IL-33 [10] = target: T6, recombinant human IL-33 (human, UniProt O95760 112-270, limits assumed); test: cell-based or functional assay
T6 sequence (looked up): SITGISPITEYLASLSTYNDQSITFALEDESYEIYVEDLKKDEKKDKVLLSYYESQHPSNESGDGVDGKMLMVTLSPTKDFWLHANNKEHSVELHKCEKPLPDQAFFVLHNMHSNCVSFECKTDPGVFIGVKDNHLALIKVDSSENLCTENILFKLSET

recombinant human IL-13 [11] = target: T5, recombinant human IL-13; test: cell-based or functional assay; remark: listed apart in the source
recombinant human IL-4 [12] = target: T3, recombinant human IL-4; test: cell-based or functional assay; remark: listed apart in the source
recombinant human IL-4 [13] = target: T3, recombinant human IL-4; test: cell-based or functional assay; remark: listed apart in the source
recombinant human IL-13 [14] = target: T5, recombinant human IL-13; test: cell-based or functional assay; remark: listed apart in the source
[15] = target: T2, recombinant cynomolgus monkey IL-4; test: cell-based or functional assay
recombinant human IL-4 [16] = target: T3, recombinant human IL-4; test: cell-based or functional assay; remark: listed apart in the source
recombinant human IL-13 [17] = target: T5, recombinant human IL-13; test: cell-based or functional assay; remark: listed apart in the source
recombinant human IL-33 [18] = target: T6, recombinant human IL-33; test: cell-based or functional assay; remark: listed apart in the source
IL-33 mm2 = target: T7, IL-33 mm2 (human, UniProt O95760 112-270, limits assumed); test: cell-based or functional assay
T7 sequence (looked up): T6 sequence (looked up) with C97S, C116S, C121S, C148S

human IL-33 = target: T8, human IL-33 (human, UniProt O95760 112-270, limits assumed); test: KinExA solution affinity, fixed antigen format
T8 construct: Limits stated for the R&D protein; also called human IL-33 WT; reduced human IL-33
T8 sequence (looked up): T6 sequence (looked up)
Experimental: Samples were prepared in PBS containing 0.1% sodium azide and 1.0 mg/mL bovine serum albumin (BSA). […] The fixed active binding concentrations (ABC) of biotinylated human IL 33 used were 10 pM and 100 pM. Biotinylated human IL-33 wild-type (WT) was reduced with 3 mM Dithiothreitol (DTT) for 2 hours at room temperature before use. The samples were allowed to equilibrate for at least 72 hours at room temperature before passing them through a flow cell that contained the test article anti-IL-33 antibody being evaluated adsorbed to polymethylmethacrylate (PMMA) beads (Sapidyne). […] Data analysis was performed with KinExA Pro software version 4.3.11 (Sapidyne). […] The ‘drift correction’ fitting option was used when responses varied between replicate injections. Two curves were obtained in independent experiments and analyzed using the ‘n-curve analysis’ tool to obtain global best fit values for the KD and active concentration of IL-33 cytokine. The software reports each best fit value along with a 95% confidence interval.

B1: IL4-1284 (antibody, human IgG1, kappa, V domains shown)
VH: QVTLRESGPALVKPTQTLTLTCTFSGFSLSTSGMGVSWIRQPPGKGLEWLAHIYWDDDKRYNPSLKSRLTISKDTSRNQVVLTMTNMDPVDTATYYCARRETVFYWYFDVWGRGTPVTVSS
VL: DIVMTQSPDSLAVSLGERATINCKASQSVDYDGDSYMNWYQQKPGQPPKLLIYAASNLESGVPDRFSGSGSGTDFTLTISSLQAEDVAVYYCQQSNEDPPRFGGGTKVEIKR
pSTAT6: Fold bioactivity relative to IL4-1284 (human IL-4 [1]): 1 fold | pSTAT6: Fold bioactivity relative to IL4-1285 (human IL-4 [1]): 0.6 fold | pSTAT6 IC50 [pM] (human IL-4 [1]): 125 pM | pSTAT6 IC50 [pM] (human IL-4 [2]): 125 pM

B2: IL13433-1258 (other)
heavy: EVQLVESGGGLVQPGGSLRLSCAASGFTFSSYWMYWVRQAPGKGLEWVAAITPNAGEDYYPESVKGRFTISRDNAKNSLYLQMNSLRAEDTAVYYCARGQYYYTKYSLGYWGQGTLVTVSSASTKGPSVFPLAPSSKSTSGGTAALGCLVKDYFPEPVTVSWNSGALTSGVHTFPAVLQSSGLYSLSSVVTVPSSSLGTQTYICNVNHKPSNTKVDKKVEPKSCRKTHTCPPCPAPEAAGAPSVFLFPPKPKDTLMISRTPEVTCVVVDVSHEDPEVKFNWYVDGVEVHNAKTKPREEQYNSTYRVVSVLTVLHQDWLNGKEYKCKVSNKALPAPIEKTISKAKGQPREPQVYTLPPSREEMTKNQVSLTCLVKGFYPSDIAVEWESNGQPENNYKTTPPVLDSDGSFFLYSRLTVDKSRWQQGNVFSCSVLHEALHSHYTQKSLSLSPGK
chain 1: DIQMTQSPSSLSASVGDRVTITCKASESVDHFGWSLVHWYQQKPGKAPKLLIYRASNLESGVPSRFSGSGSGTDFTLTISSLQPEDFATYYCQQSNEDPWTFGGGTKVEIKRTVAAPSVFIFPPSDEQLKSGTASVVCLLNNFYPREAKVQWKVDNALQSGNSQESVTEQDSKDSTYSLSSTLTLSKADYEKHKVYACEVTHQGLSSPVTKSFNRGECGGGGSEVTLRESGPALVKPTQTLTLTCTFSGFSLSNFGEGLSWIRQPPGKGLEWLAHIYWDDDKRYNPSLKSRLTISKDTSRNQVVLTMTNMDPVDTATYYCARRETVFYWYFDVWGQGTTVTVSSASTKGPSVFPLAPSSKSTSGGTAALGCLVKDYFPEPVTVSWNSGALTSGVHTFPAVLQSSGLYSLSSVVTVPSSSLGTQTYICNVNHKPSNTKVDKKVEPKSCEKTHTCPPCPAPEAAGAPSVFLFPPKPKDTLMISRTPEVTCVVVDVSHEDPEVKFNWYVDGVEVHNAKTKPREEQYNSTYRVVSVLTVLHQDWLNGKEYKCKVSNKALPAPIEKTISKAKGQPREPQVYTLPPSREEMTKNQVSLTCEVKGFYPSDIAVEWESNGQPENNYKTTPPVLDSDGSFFLYSKLTVDKSRWQQGNVFSCSVLHEALHSHYTQKSLSLSPGK
light 1: DIQMTQSPSSLSASVGDRVTITCRASQPIHNHLDWYQQKPGKAPKLLIYFGKNLQEGVPSRFSGSGSGTDFTLTISSLQPEDFATYYCFQYKKGWSFGGGTKVEIKRTVAAPSVFIFPPSDEQLKSGTASVVCLLNNFYPREAKVQWKVDNALQSGNSQESVTEQDSKDSTYSLSSTLTLSKADYEKHKVYACEVTHQGLSSPVTKSFNRGEC
light 2: DIQMTQSPSSLSASVGDRVTITCRASQSVDEEGDSYMNWYQQKPGKAPKLLIYAASNLESGVPSRFSGSGSGTDFTLTISSLQPEDFATYYCQQSNKDPPTFGGGTKVEIKRTVAAPSVFIFPPSDEQLKSGTASVVCLLNNFYPREAKVQWKVDNALQSGNSQESVTEQDSKDSTYSLSSTLTLSKADYEKHKVYACEVTHQGLSSPVTKSFNRGEC
chain 2: EVQLVESGGGLVQPGGSLRLSCAASGFTFSSYAMSWVRQAPGKGLEWVASISSGDTTYYPDSVKGRFTISRDNAKNSLYLQMNSLRAEDTAVYYCARNEGYYFGLTLWGQGTLVTVSSASTKGPSVFPLAPSSKSTSGGTAALGCLVKDYFPEPVTVSWNSGALTSGVHTFPAVLQSSGLYSLSSVVTVPSSSLGTQTYICNVNHKPSNTKVDKKVEPKSC
notes: Trispecific Tri-Fab-Fc, dual cell, EE/RR, LS; Chains in order: SFab HC(3), DFab LC(1)-HC(2), SFab LC(3), DFab LC(2), modified Fd(1)
Kd [3]: 0.00296 nM | Kd (recombinant human IL-4 [4]): 0.000477 nM | IC50 (median), CD23 expression, Human Whole Blood [5]: 0.0505 nM | IC50 (median), CD23 expression, Peripheral Blood Monocytes [5]: 0.0528 nM | IC50 (median), CD23 expression, Human Whole Blood (recombinant human IL-13 [6]): 0.0161 nM | IC50 (median), CD23 expression, Peripheral Blood Monocytes (recombinant human IL-13 [6]): 0.0117 nM | IC50 (median), IL-4 induced CD23 expression on human monocytes (recombinant human IL-4 [7]): 0.01 nM | Kd [8]: 0.000866 nM | Kd (recombinant human IL-13 [9]): 0.000612 nM | IL-33 WT Activation of SEAP Reporter Cells, potency of cytokine neutralization (recombinant human IL-33 [10]): 0.013 nM | IL-13 Induced CD23 Expression, potency of cytokine neutralization (recombinant human IL-13 [11]): 0.00935 nM | IL-4 Induced CD23 Expression, potency of cytokine neutralization (recombinant human IL-4 [12]): 0.013 nM | IC50 (median), IL-4 induced CD23 expression on human monocytes (recombinant human IL-4 [13]): 0.01 nM | IC50 (median), IL-13 induced CD23 expression on human monocytes (recombinant human IL-13 [14]): 0.0117 nM | IC50 (median), CD23 expression, Human Whole Blood [15]: 0.0321 nM | IC50 (median), CD23 expression, Peripheral Blood Monocytes [15]: 0.0136 nM | IC50 (median), CD23 expression, Human Whole Blood (recombinant human IL-4 [16]): 0.0232 nM | IC50 (median), CD23 expression, Peripheral Blood Monocytes (recombinant human IL-4 [16]): 0.01 nM | IC50 (median), IL-13 induced CD23 expression on human monocytes (recombinant human IL-13 [17]): 0.0117 nM | IC50 (mean), HEK-Blue IL-33 SEAP (recombinant human IL-33 [18]): 0.0134 nM | IC50 (mean), IFNg Whole Blood (IL-12 plus IL-33 mm2-Cys) (IL-33 mm2): 0.0125 nM

B3: IL33-0726 (antibody, human IgG1, kappa, V domains shown)
VH: EVQLVESGGGLVQPGGSLRLSCAASGFTFSSYWMYWVRQAPGKGLEWVAAITPNAGEDYYPESVKGRFTISRDNAKNSLYLQMNSLRAEDTAVYYCARGQYYYTKYSLGYWGQGTLVTVSS
VL: DIQMTQSPSSLSASVGDRVTITCRASQPIHNHLDWYQQKPGKAPKLLIYFGKNLQEGVPSRFSGSGSGTDFTLTISSLQPEDFATYYCFQYKKGWSFGGGTKVEIKR
notes: also called IL13433-0726; IL33-0726 IgG
fold higher affinity relative to the IL33-0352 benchmark antibody (human IL-33): ~3 fold | fold higher affinity than IL33-0232 antibody (human IL-33): ~14 fold
